Columns and labels:
Type in all cases: physicochemical
[1] = Elution of Re-188-RC-160 from C18 SepPak columns (step-gradient of acidified ethanol) after adding post-labeling compounds
Protocol: FIG. 1B is an elution profile of Re-188-RC-160 from a C18-SepPak column using a step-gradient of acidified ethanol.
(§1) Radiolabeling kits were prepared using aseptic techniques, with each kit prepared in a 10 ml serum vial using a 2 ml liquid fill. The liquid fill contained 200 μg of RC-160 peptide in 45 mM sodium potassium tartrate, 10 mM potassium hydrogen phthalate buffer, pH 5.0, in 5 mM stannous tartrate with 1% maltose added as a freeze-drying excipient. Each kit contained a maximum of 1.19 μg of tin. After filling, the vials were lyophilized, the head space gas filled with nitrogen, and the vials stoppered and crimped. Lyophilized vials were then stored refrigerated at 2-80C. To label a kit, 4-5 ml of 188Re-perrhenate solution containing 10-100 mCi was added to the kits, and the kits then heated in a boiling water bath for 30-45 minutes. Following a brief cooling period, 2 ml of ascorbic acid for Injection, U.S.P., was added to the labeled kit through a 0.22 micron filter. Two types of parenteral ascorbate were used with similar results, Ascorbic Acid for Injection, U.S.P., 500 mg/2 ml, and Ascorvit™ (a preparation of ascorbate) 100 mg (Jenapharm, Germany). In this study, RC-160 was radiolabeled at pH 5.0 for 30 minutes at 90° C. and ascorbate was added postlabeling. The temperature effect is shown in FIGS. 2A and 2B: 19 minutes for 37° C. and 21 minutes for 900C. Also shown in FIG. 1B is an elution profile of Re-188-RC 160 from a C18 column using a step-gradient of acidified ethenol. […] FIG. 6. […] FIG. 7 and FIGS. 1A and 1B. […] Briefly, aliquots of 100 μl cysteine dissolved in phosphate buffer saline (pH 7.4 with 1 M NaOH) were diluted in separate microfuge tubes to result in a doubling dilution. 100 μl of Re188-RC-160 was added to each tube and mixed by inversion. The samples were incubated at 45 minutes at 37° C. or 90° C. A 10 μl aliquot of each sample was then spotted on heat-treated ITLC strip and chromatographed in PBS, pH 7.4 until the solvent was 0.5 cm from the strip top. The amount of displacement was expressed as % of total radioactivity at the solvent front. The results for two experiments conducted respectively at 37° and 90° C. are shown at FIG. 3. In a related manner, comparative biodistribution profiles of Re-188-RC-160 at 2 hours post injection into the tail vein of adult, female BALB/c mice (≈25 g weight) (n≧5/group) with each animal receiving 0.2 ml containing approximately 4 μCi. Selected organs as shown in FIG. 4 were resected and weighed and the associated radioactivity was determined as a percentage of injected dose pr gram of tissue. The percent dose from blood, bone and muscle was calculated assuming 7, 8.2 and 40% of total body weight for these tissues. 37° C. and 90° C. were the two temperatures at which radio labeling was performed.

[2] = Labeling efficiency of Re-188-RC-160 with ascorbic acid present during labeling (C18 SepPak, RP-HPLC, TLC)
Source text: The results obtained by analytical RP-HPLC were confirmed by TLC studies and by isocratic elutions from C-18 SepPak columns. […] The RP-HPLC results were confirmed by TLC. […] The addition of ascorbate, or ascorbate/sulfite solutions, maximized the reduction of the peptide RC-160, which is present in excess, without compromising ^188Re-RC-160. The radiolabeling kit could be formulated with an excess of stannous ions and RC-160 to accommodate a variety of labeling situations. In the presence of ^188Re, the RC-160 and stannous ions interact to result in what is believed to be metal-cyclized ^188Re-RC-160. […] Since ^188Re is produced essentially carrier-free from a 188W/^188Re generator, it is hypothesized that excess stannous ions will reduce the RC-160 not complexed to ^188Re. […] The net result is a stable radiolabeled peptide with a very high specific activity.

[3] = Elution of Re-188-RC-160 from C18 SepPak columns (step-gradient of acidified ethanol) after adding post-labeling compounds; remark: listed apart in the source
[4] = Post-labeling stability of radiolabeled RC-160 (uncoupling of isotope) by TLC and RP-HPLC
Protocol: as §1

[5] = Cysteine displacement of Re-188 from Re-188-RC-160 (ITLC); settings: addition of the ascorbate post-labeling
Protocol: Radiolabeling kits were prepared using aseptic techniques, with each kit prepared in a 10 ml serum vial using a 2 ml liquid fill. The liquid fill contained 200 μg of RC-160 peptide in 45 mM sodium potassium tartrate, 10 mM potassium hydrogen phthalate buffer, pH 5.0, in 5 mM stannous tartrate with 1% maltose added as a freeze-drying excipient. Each kit contained a maximum of 1.19 μg of tin. After filling, the vials were lyophilized, the head space gas filled with nitrogen, and the vials stoppered and crimped. Lyophilized vials were then stored refrigerated at 2-80C. To label a kit, 4-5 ml of 188Re-perrhenate solution containing 10-100 mCi was added to the kits, and the kits then heated in a boiling water bath for 30-45 minutes. Following a brief cooling period, 2 ml of ascorbic acid for Injection, U.S.P., was added to the labeled kit through a 0.22 micron filter. […] The amount of displacement was expressed as % of total radioactivity at the solvent front. […] Selected organs as shown in FIG. 4 were resected and weighed and the associated radioactivity was determined as a percentage of injected dose pr gram of tissue. The percent dose from blood, bone and muscle was calculated assuming 7, 8.2 and 40% of total body weight for these tissues. […]

[6] = post-labeling Ascorbate for Injection, USP
[7] = post-labeling Ascorvit formulation
[8] = post-labeling ascorbate (50 mg/ml, pH 6.0)
[9] = post-labeling sodium bisulfite (1 mg/ml, pH 5.5)
[10] = post-labeling sodium sulfite (1 mg/ml, pH 7.4)
[11] = NO ASCORBATE during labeling, 20 mCi Re-188
[12] = PLUS ASCORBATE: 400 μg ascorbic acid introduced along with the Re-188, 20 mCi

Q: What does the source list for “Re-188-RC-160: RC-160, cyclic somatostatin analogue D-Phe-Cys-Tyr-D-Trp-Lys-Val-Cys-Trp-NH2, radiolabeled with 188Re using stannous kit”?
A: % of total radioactivity assayed, 0-20% ethanol fraction [1, 6]: 0.7%; % of total radioactivity assayed, 40-60% ethanol fraction [1, 6]: 91.5%; % of total radioactivity assayed, 80-100% ethanol fraction [1, 6]: 1.3%; % of total radioactivity assayed, retained on column [1, 6]: 6.6%; % of total radioactivity assayed, 0-20% ethanol fraction [1, 7]: 1.0%; % of total radioactivity assayed, 40-60% ethanol fraction [1, 7]: 94.0%; % of total radioactivity assayed, 80-100% ethanol fraction [1, 7]: 1.8%; % of total radioactivity assayed, retained on column [1, 7]: 3.3%; % of total radioactivity assayed, 0-20% ethanol fraction ([1]; post-labeling SALINE): 0.8%; % of total radioactivity assayed, 40-60% ethanol fraction ([1]; post-labeling SALINE): 85.4%; % of total radioactivity assayed, retained on column ([1]; post-labeling SALINE): 9.7%; % of total radioactivity assayed, 0-20% ethanol fraction [1, 8]: 0.7%; % of total radioactivity assayed, 40-60% ethanol fraction [1, 8]: 96.4%; % of total radioactivity assayed, 80-100% ethanol fraction [1, 8]: 0.9%; % of total radioactivity assayed, retained on column [1, 8]: 1.8%; % of total radioactivity assayed, 0-20% ethanol fraction [1, 9]: 1.0%; % of total radioactivity assayed, 0-20% ethanol fraction [1, 10]: 7.0%; % of total radioactivity assayed, retained on column [1, 10]: 3.5%; % of total radioactivity [2, 11]: 2.1%; % of total radioactivity, 10% ethanol [2, 11]: 0.9%; % of total radioactivity, 85% ethanol [2, 11]: 97.0%; % of total radioactivity [2, 12]: 1.4%; % of total radioactivity, 10% ethanol [2, 12]: 52.4%; % of total radioactivity, 85% ethanol [2, 12]: 46.2%; % of total radioactivity assayed, 80-100% ethanol fraction ([3]; post-labeling SALINE): 4.0%; % of total radioactivity assayed, 40-60% ethanol fraction [3, 9]: 94.0%; % of total radioactivity assayed, 80-100% ethanol fraction [3, 9]: 1.8%; % of total radioactivity assayed, retained on column [3, 9]: 3.3%; % of total radioactivity assayed, 40-60% ethanol fraction [3, 10]: 35.8%; % of total radioactivity assayed, 80-100% ethanol fraction [3, 10]: 3.8%; stabilization post-labeling ([4]; 50 mg/ml ascorbate compared with 250 mg/ml of ascorbate): yielded the same results; free rhenium in HPLC profile ([4]; 30 hours post-labeling, 65 mCi of 188Re, ascorbate added after labeling): very little free rhenium could be found; stability post-labeling ([4]; ascorbate not added, TLC, confirmed by RP-HPLC): stable for only up to two hours post-labeling; stability post-labeling (uncoupling of 188Re from the peptide) ([4]; post-labeling addition of ascorbate): essentially eliminate the uncoupling and stabilize; stabilization post-labeling ([4]; sodium sulfite (1 mg/ml pH 7.4), sodium bisulfite (1 mg/ml, pH 5.5), or mixtures of ascorbate with sodium sulfite, sodium bisulfite or EDTA): also effective in stabilizing; Re-peptide bond strength (cysteine displacement) [5]: not altered

From patent publication US6685912B2, “Post-labeling stabilization of radiolabeled proteins and peptides” (Rhomed Incorporated, priority 1996, dated 2004)
